B1: NP_002788.1 (parent)
chain: DGWIRVSSDNVADLHEKYSGSTP

Variants of: B1
Experiment: protein stability index of a GFP-peptide fusion (GPS, HEK-293T) (PSI 1-6); higher = more stable
Conditions: c terminus: native
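Note: lentivirally expressed fusion library, cells FACS-sorted into six equal-sized GFP/DsRed ratio bins, PSI computed from sequencing read fractions per bin weighted by bin number.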

Row | Variant | protein stability index
1 | K17F | 3.36
2 | K17N | 3.33
3 | K17V | 3.18
4 | K17M | 3.19
5 | K17P | 3.69
6 | K17A | 3.52
7 | K17G | 3.75
8 | K17Y | 3.34
9 | K17L | 3.06
10 | K17E | 3.47
11 | K17C | 3.04
12 | K17Q | 3.16
13 | K17H | 3.24
14 | K17W | 2.97
15 | K17I | 3.12
16 | K17S | 3.41
17 | K17T | 3.27
18 | K17D | 3.58
19 | R5L | 2.5
20 | R5V | 2.42
21 | R5M | 2.64
22 | R5A | 2.31
23 | R5C | 2.83
24 | R5N | 2.63

Row | Variant | protein stability index
25 | R5D | 3.01
26 | R5Q | 2.52
27 | R5T | 2.54
28 | R5I | 2.67
29 | R5E | 2.96
30 | R5H | 2.62
31 | R5W | 2.41
32 | R5G | 3.15
33 | R5F | 2.52
34 | R5S | 2.51
35 | R5P | 4.15
36 | R5K | 2.49
37 | R5Y | 2.76
38 | V6Q | 2.41
39 | V6I | 2.21
40 | V6H | 2.18
41 | V6C | 3
42 | V6F | 2.77
43 | V6G | 4.34
44 | V6Y | 2.48
45 | V6M | 2.31
46 | V6P | 5.05
47 | V6W | 3.04
48 | V6D | 4.78

Row | Variant | protein stability index
49 | V6T | 3.15
50 | V6E | 3.77
51 | V6N | 2.86
52 | V6K | 2.16
53 | V6A | 2.27
54 | V6L | 2.78
55 | V6R | 2.13
56 | V6S | 3.41
57 | A12M | 2.3
58 | A12E | 2.52
59 | A12R | 2.46
60 | A12H | 2.85
61 | A12S | 2.24
62 | A12V | 2.44
63 | A12Y | 2.73
64 | A12N | 2.48
65 | A12K | 2.33
66 | A12T | 2.43
67 | A12P | 2.45
68 | A12C | 2.57
69 | A12I | 2.59
70 | A12Q | 2.25
71 | A12L | 2.88
72 | A12F | 2.32

Row | Variant | protein stability index
73 | A12G | 2.68
74 | A12W | 2.46
75 | H15R | 2.33
76 | H15L | 2.66
77 | H15P | 3.06
78 | H15G | 2.71
79 | H15V | 2.4
80 | H15I | 2.68
81 | H15N | 2.92
82 | H15F | 2.82
83 | H15A | 2.51
84 | H15S | 2.47
85 | H15Y | 2.42
86 | H15W | 2.39
87 | H15E | 2.98
88 | H15D | 2.85
89 | H15Q | 2.76
90 | H15M | 2.64
91 | H15C | 2.73
92 | H15T | 2.77
93 | H15K | 2.77
94 | Y18M | 2.92
95 | Y18Q | 3.46
96 | Y18I | 3.11

Row | Variant | protein stability index
97 | Y18C | 3.09
98 | Y18S | 3.6
99 | Y18D | 3.64
100 | Y18L | 2.69
101 | Y18E | 3.23
102 | Y18P | 4.33
103 | Y18G | 3.6
104 | Y18F | 2.44
105 | Y18R | 3.3
106 | Y18H | 2.68
107 | Y18K | 4.17
108 | Y18N | 3.13
109 | Y18T | 3.66
110 | Y18A | 3.39
111 | N10P | 2.58
112 | N10A | 1.84
113 | N10C | 2.21
114 | N10R | 2.04
115 | N10K | 2.28
116 | N10D | 2.54
117 | N10G | 2.86
118 | N10I | 2.28
119 | N10M | 2.67
120 | N10V | 2.39

Row | Variant | protein stability index
121 | N10T | 2.37
122 | N10E | 2.53
123 | N10W | 2.42
124 | N10S | 2.17
125 | N10L | 2.69
126 | N10F | 2.4
127 | N10H | 2.22
128 | N10Y | 2.36
129 | E16K | 3.12
130 | E16I | 2.58
131 | E16L | 2.76
132 | E16G | 3.13
133 | E16R | 2.97
134 | E16D | 2.58
135 | E16W | 2.65
136 | E16S | 2.64
137 | E16H | 2.67
138 | E16C | 2.62
139 | E16Y | 2.87
140 | E16M | 2.53
141 | E16N | 2.95
142 | E16V | 2.92
143 | E16T | 2.8
144 | E16Q | 2.87

Row | Variant | protein stability index
145 | E16F | 2.46
146 | E16P | 3.32
147 | E16A | 2.5
148 | D13W | 2.71
149 | D13V | 2.75
150 | D13L | 2.58
151 | D13M | 2.53
152 | D13E | 2.72
153 | D13P | 2.3
154 | D13A | 2.66
155 | D13Q | 2.47
156 | D13G | 2.42
157 | D13K | 2.71
158 | D13T | 2.47
159 | D13C | 2.6
160 | D13N | 2.4
161 | D13F | 2.62
162 | D13H | 2.38
163 | D13S | 2.52
164 | D13I | 2.53
165 | D13R | 2.04
166 | D13Y | 2.54
167 | S7C | 2.07
168 | S7Q | 3.86

Row | Variant | protein stability index
169 | S7P | 4.54
170 | S7T | 2.24
171 | S7K | 4.58
172 | S7D | 4.55
173 | S7E | 3.83
174 | S7F | 2.45
175 | S7W | 2.64
176 | S7A | 2.32
177 | S7Y | 2.39
178 | S7V | 2.06
179 | S7L | 2.26
180 | S7N | 4.02
181 | S7M | 2.41
182 | S7R | 4.19
183 | S7G | 3.63
184 | S7I | 2.25
185 | S7H | 3.09
186 | D9F | 2.27
187 | D9L | 2.42
188 | D9M | 2.59
189 | D9Q | 2.41
190 | D9W | 2.19
191 | D9P | 2.25
192 | D9C | 2.4

Row | Variant | protein stability index
193 | D9A | 2.35
194 | D9H | 2.59
195 | D9T | 2.43
196 | D9I | 2.27
197 | D9S | 2.74
198 | D9R | 2.3
199 | D9N | 2.29
200 | D9V | 2.54
201 | D9Y | 2.24
202 | D9G | 2.82
203 | D9E | 2.34
204 | D9K | 2.36
205 | L14N | 2.98
206 | L14W | 2.62
207 | L14A | 2.84
208 | L14V | 2.36
209 | L14S | 3.01
210 | L14E | 2.74
211 | L14K | 2.37
212 | L14G | 3.47
213 | L14R | 2.41
214 | L14P | 2.57
215 | L14H | 2.06
216 | L14F | 1.96

Row | Variant | protein stability index
217 | L14Q | 2.89
218 | L14C | 2.92
219 | L14D | 2.89
220 | L14I | 2.35
221 | L14Y | 2.5
222 | L14M | 2.65
223 | L14T | 2.86
224 | G2T | 2.09
225 | G2W | 2.27
226 | G2V | 2.49
227 | G2F | 2.47
228 | G2Y | 2.78
229 | G2L | 2.54
230 | G2S | 2.13
231 | G2K | 2.13
232 | G2A | 2.25
233 | G2R | 2.97
234 | G2D | 2.9
235 | G2N | 2.42
236 | G2C | 2.21
237 | G2H | 2.51
238 | G2Q | 2.56
239 | G2P | 2.71
240 | G2M | 2.36

Row | Variant | protein stability index
241 | G2E | 2.51
242 | V11Q | 2.38
243 | V11A | 2.53
244 | V11E | 1.92
245 | V11C | 2.41
246 | V11M | 2.64
247 | V11K | 1.78
248 | V11T | 2.48
249 | V11N | 2.69
250 | V11W | 2.4
251 | V11G | 2.7
252 | V11L | 2.21
253 | V11S | 2.47
254 | V11H | 2.29
255 | V11D | 2.54
256 | V11P | 2.73
257 | V11Y | 2.67
258 | V11R | 1.87
259 | V11F | 2.37
260 | D1I | 2.92
261 | D1K | 2.09
262 | D1R | 2.44
263 | D1H | 2.51
264 | D1E | 2.54

Row | Variant | protein stability index
265 | D1C | 2.23
266 | D1Y | 2.07
267 | D1W | 2.8
268 | D1F | 2.3
269 | D1A | 2.37
270 | D1N | 2.33
271 | D1V | 2.36
272 | D1T | 2.48
273 | D1M | 2.3
274 | D1L | 2.2
275 | D1P | 2.7
276 | D1S | 2.53
277 | D1Q | 2.36
278 | S8T | 2.87
279 | S8E | 2.23
280 | S8N | 2.31
281 | S8K | 2.68
282 | S8F | 2.36
283 | S8I | 2.32
284 | S8C | 2.13
285 | S8L | 2.28
286 | S8M | 2.41
287 | S8Q | 2.54
288 | S8G | 2.42

Row | Variant | protein stability index
289 | S8R | 2.31
290 | S8Y | 2.14
291 | S8A | 2.31
292 | S8W | 2.23
293 | S8D | 2.99
294 | S8P | 3.95
295 | S8H | 2.57
296 | S8V | 2.42
297 | I4K | 3.67
298 | I4V | 2.17
299 | I4H | 4.58
300 | I4E | 3.9
301 | I4A | 2.92
302 | I4W | 3.58
303 | I4S | 3.47
304 | I4N | 4.94
305 | I4P | 5.29
306 | I4F | 4.14
307 | I4M | 3.39
308 | I4C | 3.19
309 | I4D | 4.94
310 | I4L | 3.18
311 | I4Q | 2.94
312 | I4T | 2.81

Row | Variant | protein stability index
313 | I4G | 4.49
314 | I4Y | 4.36
315 | I4R | 3.53
316 | W3Q | 5.42
317 | W3Y | 5.02
318 | W3L | 5.26
319 | W3D | 5.23
320 | W3A | 5.34
321 | W3F | 4.08
322 | W3N | 5.39
323 | W3I | 5.33
324 | W3K | 5.21
325 | W3R | 5.15
326 | W3G | 5.28
327 | W3T | 5.5
328 | W3P | 5.26
329 | W3E | 5.43
330 | W3V | 5.65
331 | W3C | 5.49
332 | W3H | 5.35
333 | W3S | 5.54
334 | W3M | 5.35

Reference: the supplement of paper PMC10567573
